Results as given in paper PMC5854407 (Nature, 2017).

Tests used:
[1] = target: T1, hTRPV6 (Homo sapiens, UniProt Q9H1D0, R510E); experiment: Fura-2 AM ratiometric Ca2+ uptake in HEK cells; assay type: cell-based
T1 sequence (Q9H1D0 41-765 R510E): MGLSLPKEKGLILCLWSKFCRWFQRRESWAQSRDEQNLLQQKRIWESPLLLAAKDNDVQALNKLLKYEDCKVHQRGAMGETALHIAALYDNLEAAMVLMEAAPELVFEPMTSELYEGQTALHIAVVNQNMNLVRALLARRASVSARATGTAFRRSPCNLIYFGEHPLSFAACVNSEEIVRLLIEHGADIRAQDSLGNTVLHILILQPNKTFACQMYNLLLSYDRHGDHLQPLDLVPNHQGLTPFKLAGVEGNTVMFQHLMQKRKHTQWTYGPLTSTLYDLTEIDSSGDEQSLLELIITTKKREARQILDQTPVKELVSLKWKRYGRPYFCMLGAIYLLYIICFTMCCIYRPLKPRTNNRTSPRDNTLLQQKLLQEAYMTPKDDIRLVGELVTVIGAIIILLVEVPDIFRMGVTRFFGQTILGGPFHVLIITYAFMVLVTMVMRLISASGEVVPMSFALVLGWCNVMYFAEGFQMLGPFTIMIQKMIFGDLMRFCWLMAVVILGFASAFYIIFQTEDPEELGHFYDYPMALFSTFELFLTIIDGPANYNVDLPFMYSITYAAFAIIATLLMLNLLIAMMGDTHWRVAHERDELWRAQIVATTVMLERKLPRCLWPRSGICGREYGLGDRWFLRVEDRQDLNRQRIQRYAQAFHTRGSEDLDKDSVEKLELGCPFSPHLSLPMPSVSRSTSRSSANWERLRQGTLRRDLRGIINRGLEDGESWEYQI

[2] = target: hTRPV6-R470E (human); experiment: cryo-EM structure
[3] = target: rTRPV6* (rat TRPV6 construct previously used for crystallographic studies) (rat); experiment: cryo-EM structure

Compound: NCCOB(c1ccccc1)c1ccccc1 [2-APB]
- IC50 [1]: 85 ± 5 µM

Compound: hTRPV6-R470E (natural protein)
- stoichiometry N [2]: 4

Compound: rTRPV6* (rat TRPV6 construct previously used for crystallographic studies) (natural protein)
- stoichiometry N [3]: 4
